# B1: Ribonuclease HI, P0A7Y4 (parent)
# chain: MLKQVEIFTDGSCLGNPGPGGYGAILRYRGREKTFSAGYTRTTNNRMELMAAIVALEALKEHCEVILSTDSQYVRQGITQWIHNWKKRGWKTADKKPVKNVDLWQRLDAALGQHQIKWEWVKGHAGHPENERCDELARAAAMNPTLEDTGYQVEV
# Variants of: B1
# Details: Escherichia coli (strain K12); pH 3; 50.1 °C; Thermal; CD; glycine-HCl 10 mM; NaCl 0.1 M; reversible: yes; structure 2RN2; whole UniProt chain shown
row,Variant,ddG of mutation (higher = less stable)
1,H62R,0.03 kcal/mol
2,Q76L,-0.24 kcal/mol
3,Q80L K117R,0.03 kcal/mol
4,K117R,0.06 kcal/mol
5,E119V,-0.09 kcal/mol
6,E119V K60R,0.06 kcal/mol
7,E119V R41C,-0.09 kcal/mol
8,E135K,1.1 kcal/mol

# Same assay, conditions: Escherichia coli (strain K12); pH 3; Thermal; CD; glycine-HCl 10 mM; NaCl 0.1 M; reversible: yes; structure 2RN2; whole UniProt chain shown
Variant,Tm,"change of melting temperature, mutant - wild type (higher = more stable)",unfolding enthalpy (van 't Hoff)
H62R,50 °C,-0.1 °C,114 kcal/mol
Q76L,50.9 °C,0.8 °C,110 kcal/mol
Q80L K117R,50 °C,-0.1 °C,104 kcal/mol
K117R,49.9 °C,-0.2 °C,97.1 kcal/mol
E119V K60R,49.9 °C,-0.2 °C,109 kcal/mol
E119V R41C,50.4 °C,0.3 °C,101 kcal/mol
E135K,46.4 °C,-3.7 °C,99 kcal/mol
Q80L,51.1 °C,1 °C,114 kcal/mol

# Same assay, conditions: Escherichia coli (strain K12); pH 5.5; 52.7 °C; Thermal; CD; Sodium acetate 20 mM; NaCl 0.1 M; reversible: yes; structure 2RN2; whole UniProt chain shown
row,Variant,ddG of mutation (higher = less stable)
1,H62R,-0.36 kcal/mol
2,K117R,-0.03 kcal/mol
3,E119V,-0.74 kcal/mol
4,E119V K60R,-0.63 kcal/mol
5,E135K,0.22 kcal/mol

# Same assay, conditions: Escherichia coli (strain K12); pH 5.5; Thermal; CD; Sodium acetate 20 mM; NaCl 0.1 M; reversible: yes; structure 2RN2; whole UniProt chain shown
Variant,Tm,"change of melting temperature, mutant - wild type (higher = more stable)",unfolding enthalpy (van 't Hoff)
H62R,54 °C,1.3 °C,97.1 kcal/mol
Q76L,53.8 °C,1.1 °C,81.2 kcal/mol
Q80L K117R,53.5 °C,0.8 °C,83.1 kcal/mol
E119V,55.4 °C,2.7 °C,94.3 kcal/mol
E119V K60R,55 °C,2.3 °C,98.6 kcal/mol
E119V R41C,56.9 °C,4.2 °C,107 kcal/mol
E135K,51.9 °C,-0.8 °C,89.9 kcal/mol
Q80L,53.5 °C,0.8 °C,94.6 kcal/mol

# Same assay, conditions: Escherichia coli (strain K12); pH 3; Thermal; CD; Gly-HCl buffer 10 mM; NaCl 0.1 M; reversible: yes; structure 2RN2; whole UniProt chain shown
Variant,"change of melting temperature, mutant - wild type (higher = more stable)",ddG of mutation (higher = less stable)
V74A,-7.6 °C,2.2 kcal/mol
V74I,2.4 °C,-0.7 kcal/mol
V74L,3.7 °C,-1.1 kcal/mol

# Same assay, conditions: Escherichia coli (strain K12); pH 5.5; Thermal; CD; sodium acetate 20 mM; NaCl 0.1 M; reversible: yes; structure 2RN2; whole UniProt chain shown
Variant,"change of melting temperature, mutant - wild type (higher = more stable)",ddG of mutation (higher = less stable)
V74A,-12.7 °C,3.4 kcal/mol
V74I,2.1 °C,-0.6 kcal/mol
V74L,3.3 °C,-0.9 kcal/mol

# Same assay, conditions: Escherichia coli (strain K12); pH 3; Thermal; CD; glycine-HCl 10 mM; reversible: yes; structure 2RN2; whole UniProt chain shown
Variant,Tm,"change of melting temperature, mutant - wild type (higher = more stable)",unfolding enthalpy (van 't Hoff)
K91R,49.8 °C,0.5 °C,119 kcal/mol
D94E,49.8 °C,-1.2 °C,95.9 kcal/mol

# Same assay, conditions: Escherichia coli (strain K12); pH 5.5; 49.8 °C; Thermal; CD; Sodium acetate 20 mM; reversible: yes; structure 2RN2; whole UniProt chain shown
row,Variant,ddG of mutation (higher = less stable)
1,K91R,0 kcal/mol
2,D94E,0.4 kcal/mol

# Same assay, conditions: Escherichia coli (strain K12); pH 5.5; Thermal; CD; Sodium acetate 20 mM; reversible: yes; structure 2RN2; whole UniProt chain shown
Variant,Tm,"change of melting temperature, mutant - wild type (higher = more stable)",unfolding enthalpy (van 't Hoff)
K91R,52 °C,0.1 °C,96.2 kcal/mol
D94E,52 °C,-1.6 °C,92.9 kcal/mol
